From article PMC8409056 come the findings set out here.

The target of data set [1] is SARS-CoV-2 spike S1 subunit (SARS-CoV-2, UniProt P0DTC2 16-685).
The target in data set [2] is SARS-CoV-2 spike RBD-Fc fusion (SARS-CoV-2, UniProt P0DTC2 319-541). Put plainly: ELISA on aptamer-coated gold slide.

B1: CoV-2-RBD-4C aptamer (Aptamer-4C) (structured_DNA)
DNA: ATCCAGAGTGACGCAGCATTTCATCGGGTCCAAAAGGGGCTGCTCGGGATTGCGGATATGGACACGT
modifications: 5'-thiol, immobilized on gold
For the molecule B1, the binding result in data set [1] and in data set [2] was “binds” each time.
